Data on one molecule can be found in patent publication US11162953B2, “Protein binding domains stabilizing functional conformational states of GPCRS and uses thereof” (priority 2010, dated 2021).

“Also recorded” adds a separate entry of the source.

The target of one data set is human β1AR (Homo sapiens, UniProt P08588). As to the kind of experiment: [3H]-DHA competition binding on β1AR with or without Nb80. The text has this:
Active state stabilizing Nanobodies that are cross-reactive to related receptors can be used as a tool to stabilize a conformational state of those related receptors. […] Using the PISA server (Krissinel & Henrick, 2007) and based on the crystal structure of the Nb80-β2AR complex, 30 β2AR AA residues were identified to interact with Nb80 in the β2AR-Nb80 interface. […] The remaining interface residues are lysines in β2AR and have been substituted by arginines in β1AR corresponding to conserved substitutions (shown in grey boxes in FIG. 17). It thus appears that both receptors share a very similar binding site for Nb80. Based on this analysis, we also measured the effect of Nb80 on the affinity of β1AR for the agonist isoproterenol and the inverse agonist […] (FIG. 18).

Data set [1] has as its system β2AR-T4L. The data set can be described thus: [3H]-DHA competition binding on β2AR-T4L reconstituted in HDL particles, with or without Nb80. More on the design: species or system human. Particulars: β2AR-T4L/HDL + Nb80 versus alone.
The target of data set [2] is T1, β2AR-T4L (Homo sapiens, UniProt P07550, DEL231-262, form not given).
T1 construct: The β2AR and β2AR-T4L (both truncated at position 365) purified as previously described (Rosenbaum et al. 2007); fused on or other part: T4 lysozyme inserted in place of the third intracellular loop between TM5 and TM6 as a crystallisation handle (published construct: residues 2-161, C54T/C97A); Reconstituted in HDL particles
The data set is described as above. Particulars: β2AR-T4L/HDL.

Data set [3] deals with β2AR. As to the kind of experiment: Size exclusion chromatography of nanobody with purified agonist- or inverse agonist-bound β2AR. The format is binding, human. The following applies: 20 μM β2AR bound to agonist or inverse agonist, 40 μM nanobody. How it is done:
The mixture was then analyzed by Size Exclusion Chromatography (SEC), which separates protein on the basis of size. Seven of the nanobodies bound to purified β2AR and migrated as a complex on SEC only in the presence of agonist and not an inverse agonist (an example is shown in FIG. 1, Panel a, FIGS. 3A, 3B, and FIG. 4).
Agonist selective nanobodies were identified by size exclusion chromatography following incubation of 20 μM agonist or inverse agonist-(carazolol-) bound β2AR-365N for one hour at RT in the absence or presence of 40 μM nanobody.

Data set [4] concerns β2AR. As to the kind of experiment: [3H]-DHA competition binding on β2AR reconstituted in HDL particles, with or without Gs or Nb80. More on the design: species or system human. Particulars: β2AR/HDL + Nb80 versus alone.
In data set [5] the target is T2, β2AR (Homo sapiens, UniProt P07550). The data set can be described thus: Fluorescent (CPM) thermal stability assay of detergent-solubilized agonist-bound β2AR. More on the design: made in house. How it is done: (§1) The effect of conformational selective nanobodies on the thermostability and the subsequent aggregation of the β2AR receptor was analyzed using a fluorescent thermal stability assay (FIG. 13) and size exclusion chromatography (FIGS. 14A and 14B).
The fluorescent thermal stability assay makes use of the thiol-specific fluorochrome N-[4-(7-diethylamino-4-methyl-3-coumarinyl)phenyl]maleimide (CPM) to measure the chemical reactivity of the native cysteines embedded in the protein interior as a sensor for the overall integrity of the folder state of membrane proteins (Alexandrov et al. 2008). For the fluorescent thermal stability assay, detergent-solubilized receptor (in 0.1% dodecylmaltoside, 100 mM NaCl and 20 mM Hepes pH 7.5) was pre-incubated with isoproterenol (10 μM) in the presence or absence of a 2:1 molar excess of Nb80 for one hour at RT. Samples were then mixed with CPM fluorophore and incubated for two minutes at temperatures ranging from 10° C. to 94° C. and fluorescence emission was collected. […] Unfolding transitions could be described by a simple two-state model, including the native (folded) and the denaturated state, representing the lower and upper plateaus of the melting curves.

For a further data set, the target named is dopamine D1 receptor (Homo sapiens, UniProt P21728). The data set can be described thus: Effect of Nb80 on unrelated receptor. The format is binding. The following applies: data not shown.
Data set [6] concerns the target T2, β2AR. The data set can be described thus: [3H]-DHA competition binding on β2AR reconstituted in HDL particles, with or without Gs or Nb80. More on the design: recombinant β2AR truncated at Gly365 (β2AR-365); made in house; host or cells: Sf9 insect cells. The following applies: β2AR/HDL.
Data set [7] deals with T2, β2AR. As to the kind of experiment: Temperature-induced aggregation of agonist-bound β2AR analyzed by SEC. More on the design: made in house. Particulars: isoproterenol 10 μM, 2:1 molar excess of Nb80, 10 minutes at increasing temperatures. How it is done: as §1
We also analyzed the effect of Nb80 on the thermal unfolding and aggregation of the agonist-bound receptor by size exclusion chromatography (SEC). For this experiment, dodecylmaltoside-solubilized receptor was pre-incubated with isoproterenol (10 μM) in the presence or absence of a 2:1 molar excess of Nb80 for 45 minutes at RT. Samples were next incubated for 10 minutes at increasing temperatures and subsequently analyzed by SEC (FIGS. 14A and 14B).

The target of data set [8] is T2, β2AR. The following applies: agonist competition binding, Sf9 membranes.
Excerpt: The IC50 values used for calculations of Ki values were obtained from means of pIC50 values determined by nonlinear regression analysis using Prism (GraphPad Software, San Diego, Calif.) and the s.e. interval from pIC50±s.e.
The target in data set [9] is T2, β2AR. The format is binding. The following applies: full-length β2AR membranes, Nb80 versus irrelevant nanobody.
Data set [10] has as its target T2, β2AR. As to the kind of experiment: Monobromobimane fluorescence of purified mBBr-labeled β2AR. Particulars: 1 μM nanobody, β2AR bound to full agonist isoproterenol. The format is biochemical. More on the design: made in house. The text has this: To investigate the effect of nanobodies on movement of the cytoplasmic domain of TM6 we labeled purified β2AR at C265 with monobromobimane (mBB-β2AR). […] In mBB-β2AR, the addition of agonist together with G protein results in larger fluorescent changes than either agonist or G protein alone. This is compatible with the cooperative interactions observed in agonist competition binding assays (Yao et al. 2009).
Purified β2AR was reacted with 1:1 equivalent of monobromobimane (mBBr, Invitrogen) in 100 mM NaCl, 20 mM HEPES, pH 7.5, 0.1% dodecyl maltoside and incubated overnight on ice in the dark. The fluorophore-labeled receptor was purified right before use by gel filtration on a desalting column equilibrated with the same buffer. […] All experiments were performed at 25° C. […] To determine the effect of nanobodies and ligands, three individual labeled protein samples were incubated with 1 μM nanobody or 10 μM Isoproterenol or both. Emission spectra of the samples were taken after 1 hour incubation.

Chain of human β1AR (P08588 whole entry): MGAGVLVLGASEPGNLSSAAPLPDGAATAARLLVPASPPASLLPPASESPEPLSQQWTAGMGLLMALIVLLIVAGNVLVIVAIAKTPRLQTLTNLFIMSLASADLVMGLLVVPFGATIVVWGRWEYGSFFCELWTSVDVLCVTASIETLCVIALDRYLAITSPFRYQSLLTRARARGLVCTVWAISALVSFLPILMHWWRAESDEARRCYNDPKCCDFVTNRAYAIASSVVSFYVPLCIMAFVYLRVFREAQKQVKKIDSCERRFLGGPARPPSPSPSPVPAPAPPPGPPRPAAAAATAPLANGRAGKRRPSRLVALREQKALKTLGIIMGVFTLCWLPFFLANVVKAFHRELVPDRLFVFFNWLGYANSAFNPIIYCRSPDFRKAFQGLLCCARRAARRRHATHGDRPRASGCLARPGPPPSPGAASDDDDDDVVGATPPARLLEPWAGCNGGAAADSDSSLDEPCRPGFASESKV
Chain of dopamine D1 receptor (P21728 whole entry, species assumed, the tested form may be a part): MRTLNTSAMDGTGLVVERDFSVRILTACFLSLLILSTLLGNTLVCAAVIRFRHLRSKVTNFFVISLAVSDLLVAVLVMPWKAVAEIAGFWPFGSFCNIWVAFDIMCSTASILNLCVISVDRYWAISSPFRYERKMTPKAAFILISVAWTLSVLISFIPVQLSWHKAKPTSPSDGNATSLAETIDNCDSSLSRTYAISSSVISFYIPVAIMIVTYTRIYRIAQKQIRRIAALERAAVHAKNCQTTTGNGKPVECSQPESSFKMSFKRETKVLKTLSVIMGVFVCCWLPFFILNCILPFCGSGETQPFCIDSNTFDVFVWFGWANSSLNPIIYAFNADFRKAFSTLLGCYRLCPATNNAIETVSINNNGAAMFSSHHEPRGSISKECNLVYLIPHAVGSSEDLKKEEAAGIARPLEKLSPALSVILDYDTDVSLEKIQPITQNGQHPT

B1: NB80: β2AR-specific nanobody, SEQ ID NO:4; lead nanobody stabilizing the active state (protein, listed as Lama glama)
VHH: QVQLQESGGGLVQAGGSLRLSCAASGSIFSINTMGWYRQAPGKQRELVAAIHSGGSTNYANSVKGRFTISRDNAANTVYLQMNSLKPEDTAVYYCNVKDYGAVLYEYDYWGQGTQVTVSS
For B1, the “effect of Nb80 on affinity of β1AR for CGP20712A” value with human β1AR is recorded as “does not change the affinity”. The “effect of Nb80 on affinity of β1AR for the agonist isoproterenol” value with human β1AR was “increased affinity”. The “increase of isoproterenol affinity in the presence of Nb80” value in the data set on β2AR-T4L [1] was 60 fold; with β2AR [4] it was 95 fold. Moreover, the “effect of Nb80 on affinity for the inverse agonist ICI-118,551” value is “does not increase the affinity” in the data set with β2AR-T4L [2] and “does not increase the affinity; also recorded: little effect” with β2AR [6]. Also, in the data set with β2AR [3], the “complex formation with β2AR on SEC” value was “β2AR-agonist-Nb80 complex formation”. Further, in the data set with β2AR [5] (DDM-solubilized isoproterenol-bound β2AR, 12.0° C. without Nb80), the “apparent melting temperature for β2AR with Nb80” value amounted to 24 °C. Besides, the “increase of melting temperature (Tm) of the agonist-bound receptor” value with β2AR [5] (isoproterenol 10 μM, 2:1 molar excess of Nb80) stood at 12 °C. Besides, the “effect of Nb80 on unrelated receptor” value in the data set with dopamine D1 receptor is on record as “No such effect”. Further, in the data set with β2AR [7], the “effect on temperature-induced aggregation of agonist-bound receptor (SEC)” value is “protects the agonist-bound receptor against temperature-induced aggregation”. Moreover, the “enhancement of the affinity of β2AR for the agonist isoproterenol in the presence of nanobody” value with β2AR [8] is “two- to thirty-fold”. The “effect of Nb80 on β2AR affinity for ligands” value in the data set with β2AR [9] is on record as “increases β2AR affinity for agonists but not for antagonists”. Moreover, the “nanobody-induced change of mBBr fluorescence” value with β2AR [10] is “larger changes were observed when both agonist and nanobody were added together; also recorded: stabilizes a more active state of the β2AR”.
